Measurements published in PMC6778039.

Target: T1, ^35S-IRF3, Q14653
T1 chain: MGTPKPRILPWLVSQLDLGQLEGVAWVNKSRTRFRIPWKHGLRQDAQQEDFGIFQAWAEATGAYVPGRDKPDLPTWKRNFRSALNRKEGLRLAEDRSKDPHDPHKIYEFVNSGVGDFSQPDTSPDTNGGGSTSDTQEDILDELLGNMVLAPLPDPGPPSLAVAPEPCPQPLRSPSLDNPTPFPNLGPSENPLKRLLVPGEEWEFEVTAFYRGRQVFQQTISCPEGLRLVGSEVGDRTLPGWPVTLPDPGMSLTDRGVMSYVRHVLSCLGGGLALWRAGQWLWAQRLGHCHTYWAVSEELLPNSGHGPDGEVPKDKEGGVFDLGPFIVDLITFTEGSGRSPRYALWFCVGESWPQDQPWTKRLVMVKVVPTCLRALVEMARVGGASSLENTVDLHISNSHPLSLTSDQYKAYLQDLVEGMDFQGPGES
Assay: native gel or EMSA
Settings: remark: other sources report otherwise

B1: ^35S-IRF3, Q14653 1-427 (natural protein)
chain: T1 chain
modifications: here or on the partner: 35S label; 35S label
In the case of B1, the stoichiometry N is reported as 2.
